Source: patent publication US20230032087A1 (CULLINAN ONCOLOGY, published 2023)

Target: protein A (UniProt P38507 37-327)
Test: ForteBio Octet HTX (filing: SPR), HCAb on AHC sensors, 1:1 model

B1: CNG-HSA-101 (VHH)
VHH: KVQLVESGGGLVQPGGSLRLSCAASGFTFSSFGMTWVRQAPGKGLEWVSSISGSGSDTLYADSVRGRFTISRDNSKNTLYLQMNSLRAEDTAVYYCTIGGSLSPSSQGTLVTVSS
- Kd: ≤ 1.84 nM
- koff: ≤ 0.0002 s⁻¹
